Values quoted from earlier work in US5679705A, “Triterpene derivatives with immunosuppressant activity” (Merck & Co., Inc., priority 1996, dated 1997).

Target: T1, Kv 1.3 channels (CHO cells transfected with Kv 1.3 channels) (Homo sapiens, UniProt P22001)
T1 construct: expressed in transfected cells; host or cells: CHO cells
Details: stated in the method for the peptide used to establish the efflux window; read-out: IC50 (blocker of Kv 1.3 channels)

T1 sequence (P22001 whole entry): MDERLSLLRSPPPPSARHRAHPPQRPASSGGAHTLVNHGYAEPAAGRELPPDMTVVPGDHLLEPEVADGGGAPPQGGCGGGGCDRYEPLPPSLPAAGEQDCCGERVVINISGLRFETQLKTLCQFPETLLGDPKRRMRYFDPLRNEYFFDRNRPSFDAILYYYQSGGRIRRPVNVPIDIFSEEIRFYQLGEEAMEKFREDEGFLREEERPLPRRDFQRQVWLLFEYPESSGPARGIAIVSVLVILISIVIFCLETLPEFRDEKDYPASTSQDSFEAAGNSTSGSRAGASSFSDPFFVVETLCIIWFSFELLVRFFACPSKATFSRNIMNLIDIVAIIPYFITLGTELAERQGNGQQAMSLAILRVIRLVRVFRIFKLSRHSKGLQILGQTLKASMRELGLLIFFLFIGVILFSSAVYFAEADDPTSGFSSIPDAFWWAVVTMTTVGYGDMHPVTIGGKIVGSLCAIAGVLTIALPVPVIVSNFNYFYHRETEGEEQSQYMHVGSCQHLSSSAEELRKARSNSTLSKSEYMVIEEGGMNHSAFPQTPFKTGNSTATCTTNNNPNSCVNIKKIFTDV

For “margatoxin (TIINVKCTSPKQCLPPCKAQFGQSAGAKCMNGKCKCYPH; UniProt P40755 1-39, looked up)”, the IC50 is listed as 0.1 nM.
